# Variants at the floor of the assay were thinned out.
# Assays:
# biotinyl-Ile-oxazolone = assay: self-aminoacylation, catalytic enhancement (BIO) (fold over background); higher = more active; k-Seq, kA / k0A0; sequences stand for … in GGGAAUGGAUCCACAUCUACGAAUUC…UUCACUGCAGACUUGACGAAGCUG
# In short: (§1)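 Mutagenized RNA pools with a 21-nt variable region (0.43 μM) were reacted with each biotinyl-aminoacyl-oxazolone at 2–1250 μM for 90 minutes at room temperature, in 50 μL HEPES/NaCl/KCl/MgCl2/CaCl2 buffer containing 5% acetonitrile at pH 6.9–7.0. RNA captured on streptavidin was quantified by triplicate qPCR and by Illumina sequencing. The fraction reacted for each sequence was fit to a pseudo-first-order model with bootstrapping, and catalytic enhancement is the median kA divided by the uncatalyzed rate, taken as the low-activity peak of a bimodal Gaussian fit.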
# biotinyl-Phe-oxazolone = assay: self-aminoacylation, catalytic enhancement (BFO) (fold over background); higher = more active; k-Seq, kA / k0A0; sequences stand for … in GGGAAUGGAUCCACAUCUACGAAUUC…UUCACUGCAGACUUGACGAAGCUG
# In short: as §1
# biotinyl-Leu-oxazolone = assay: self-aminoacylation, catalytic enhancement (BLO) (fold over background); higher = more active; k-Seq, kA / k0A0; sequences stand for … in GGGAAUGGAUCCACAUCUACGAAUUC…UUCACUGCAGACUUGACGAAGCUG
# In short: as §1
# biotinyl-Val-oxazolone = assay: self-aminoacylation, catalytic enhancement (BVO) (fold over background); higher = more active; k-Seq, kA / k0A0; sequences stand for … in GGGAAUGGAUCCACAUCUACGAAUUC…UUCACUGCAGACUUGACGAAGCUG
# In short: as §1
# biotinyl-Met-oxazolone = assay: self-aminoacylation, catalytic enhancement (BMO) (fold over background); higher = more active; k-Seq, kA / k0A0; sequences stand for … in GGGAAUGGAUCCACAUCUACGAAUUC…UUCACUGCAGACUUGACGAAGCUG
# In short: as §1
# biotinyl-Trp-oxazolone = assay: self-aminoacylation, catalytic enhancement (BWO) (fold over background); higher = more active; k-Seq, kA / k0A0; sequences stand for … in GGGAAUGGAUCCACAUCUACGAAUUC…UUCACUGCAGACUUGACGAAGCUG
# In short: as §1
Sequence,self-aminoacylation (biotinyl-Ile-oxazolone),self-aminoacylation (biotinyl-Phe-oxazolone),self-aminoacylation (biotinyl-Leu-oxazolone),self-aminoacylation (biotinyl-Val-oxazolone),self-aminoacylation (biotinyl-Met-oxazolone),self-aminoacylation (biotinyl-Trp-oxazolone)
AUAACCCUGGUCAUCUAGUGA [Fam2.1 aminoacylation ribozyme variant],4.52,45.7,9.2,4.77,8.88,10.1
UUGCUUCAAACAAUCGGUCUG [Fam1A.1 aminoacylation ribozyme variant],2.12,147,3.55,1.91,2.25,53.4
AUUACCGUGGUCAUCGAGUAA [Fam2.1 aminoacylation ribozyme variant],1.42,1.2,1.56,1.58,1.35,1.93
AAUACCCUGGUCAUCGGGUGA [Fam2.1 aminoacylation ribozyme variant],7.82,77.3,11.8,7.46,12.1,15.9
AGUCACCUAGGUCACCGGGUG [Fam2.2 aminoacylation ribozyme variant],4.07,31.7,4.38,4.47,4.49,6.49
ACUACCCUGGUCAUCGAGUGU [Fam2.1 aminoacylation ribozyme variant],16.3,409,59.7,20.3,58.6,53.1
CUACUUCAAACCAUCGGACUG [Fam1A.1 aminoacylation ribozyme variant],0.8,0.578,0.747,0.873,0.669,0.444
AUUACACUGGUCAUCGACUGA [Fam2.1 aminoacylation ribozyme variant],1,1.11,0.807,0.965,0.596,0.546
AUUCACCGAGGCCAUCGGGUG [Fam2.2 aminoacylation ribozyme variant],3.16,32.8,6.39,4.36,5.31,4.78
UUUACCCUGGUCACCGAGUGA [Fam2.1 aminoacylation ribozyme variant],3.3,44.3,7.47,4.12,7.62,8
CCACACUUCAAGCAAUAGGAC [Fam1B.1 aminoacylation ribozyme variant],0.621,0.856,0.479,0.537,0.456,0.626
AUUCACCUAUGUGAUCGGGUG [Fam2.2 aminoacylation ribozyme variant],1.69,15.9,2.74,1.99,2.14,2.25
AAGUUUACUAAUAGUCGCUAG [Fam3.1 aminoacylation ribozyme variant],1.39,2.43,1.26,1.23,1.29,1.69
AUUCACCUAGGACAUCGCGUG [Fam2.2 aminoacylation ribozyme variant],2.53,26.8,4.57,2.83,3.57,3.99
AAGUUUGAUAAUAGUCUCAAG [Fam3.1 aminoacylation ribozyme variant],0.737,1.46,0.638,0.703,0.731,0.754
CCCCACUUCAAGCACUCGGUC [Fam1B.1 aminoacylation ribozyme variant],2.26,11,3.08,2.79,2.79,4.4
CUUACCCUGGUCAUCCAGUGA [Fam2.1 aminoacylation ribozyme variant],2.37,16.9,4.63,2.77,4.04,5.03
AUUACCCCGGUCAUCGAGUGG [Fam2.1 aminoacylation ribozyme variant],0.919,4.86,2.42,1.13,1.25,0.999
AUUACACUGGUCAUCGAGUGC [Fam2.1 aminoacylation ribozyme variant],1.06,0.887,1.38,1.05,1.32,1.56
CUUACACUGGUCAUCGAGUGA [Fam2.1 aminoacylation ribozyme variant],2.65,10.2,4.41,2.69,4.19,4.94
CCACACUAUAAGCAAUCGGUC [Fam1B.1 aminoacylation ribozyme variant],0.789,0.92,0.59,0.793,0.567,0.386
UUUCACUUAGGUCAUCGGGUG [Fam2.2 aminoacylation ribozyme variant],4.22,46.7,6.73,4.19,6.17,6.64
CUUCACCUAGGUCAUCGCGUG [Fam2.2 aminoacylation ribozyme variant],7.29,96.5,13.6,8.89,12.4,10.9
CUACAAUUCAAGCAAUCGGUC [Fam1B.1 aminoacylation ribozyme variant],0.902,2.71,0.75,0.779,0.819,1.61
AUUACCGUGGUCAUCGUGUGA [Fam2.1 aminoacylation ribozyme variant],1.3,5.4,2.49,1.25,1.64,2.03
GUUACCCUGGUCAUCGAGUUA [Fam2.1 aminoacylation ribozyme variant],4.48,23.1,11.1,5.21,12,10

Sequence,self-aminoacylation (biotinyl-Ile-oxazolone),self-aminoacylation (biotinyl-Phe-oxazolone),self-aminoacylation (biotinyl-Leu-oxazolone),self-aminoacylation (biotinyl-Val-oxazolone),self-aminoacylation (biotinyl-Met-oxazolone),self-aminoacylation (biotinyl-Trp-oxazolone)
AUCCACCUUGGUCAUCGGGUG [Fam2.2 aminoacylation ribozyme variant],4.12,45.5,7.29,5.35,6.42,6.99
AAGUUUGCUAAUAGUAGCAAG [Fam3.1 aminoacylation ribozyme variant],1.04,1.22,0.95,0.993,1.02,0.96
AGUACCCUGGUCAACGAGUGA [Fam2.1 aminoacylation ribozyme variant],2.91,21.6,4.71,2.63,5.55,5.71
AAGUUUACUUAUAGUCGCAAG [Fam3.1 aminoacylation ribozyme variant],1.86,2.5,1.39,1.58,1.92,1.74
CAACUUCAAACAAUCGGACUG [Fam1A.1 aminoacylation ribozyme variant],1.26,19.2,1.41,0.945,0.952,10.6
CAACUUCAAACAAUAGGUCUG [Fam1A.1 aminoacylation ribozyme variant],1.03,1.41,0.884,0.919,0.997,0.98
AACUUUGCUAAUAGUCGAAAG [Fam3.1 aminoacylation ribozyme variant],2.25,2.63,2.47,1.87,2.31,2.01
AUUCCCCUAGUUCAUCGGGUG [Fam2.2 aminoacylation ribozyme variant],6.72,56.5,10.1,6.85,7.78,10.2
CCGCACUUCCAGCAAUCGGUC [Fam1B.1 aminoacylation ribozyme variant],1.35,0.932,1.04,2.03,0.995,0.883
AAGUCUGCUAAUCGUCGCAAG [Fam3.1 aminoacylation ribozyme variant],0.996,4.49,1.15,1.01,1.36,1.94
AUGACCCUGGUCAUCGAGAGA [Fam2.1 aminoacylation ribozyme variant],1.28,2.57,1.52,1.34,1.47,1.36
AUUCAACUAGGUCAUAGGGUG [Fam2.2 aminoacylation ribozyme variant],1.49,9.13,2.58,1.28,2,1.47
AUUCACCUAGGUCAAUGGGUG [Fam2.2 aminoacylation ribozyme variant],1.42,6.93,2.23,1.38,1.75,1.65
AAUUUUGAUAAUAGUCGCAAG [Fam3.1 aminoacylation ribozyme variant],1.7,2.09,1.64,1.39,1.66,1.37
GUCCACCUAGGUCAUCGGGUG [Fam2.2 aminoacylation ribozyme variant],4.43,35.1,4.46,4.67,4.1,6.85
UAGUUUGCUAAGAGUCGCAAG [Fam3.1 aminoacylation ribozyme variant],1.12,1.77,0.952,1.18,1.1,1.22
AUGUUUGGUAAUAGUCGCAAG [Fam3.1 aminoacylation ribozyme variant],1.92,3.16,1.84,1.51,1.79,2.15
ACUCACCUAGGUCUUCGGGUG [Fam2.2 aminoacylation ribozyme variant],4.2,29.7,6.01,4.96,4.6,6.33
CUACUUCCUACAAUCGGUCUG [Fam1A.1 aminoacylation ribozyme variant],0.76,0.51,0.671,0.801,0.835,0.511
AUUCAUCUGGGUCAUCGGGUG [Fam2.2 aminoacylation ribozyme variant],5.22,53.2,10.3,4.92,7.57,7.66
AAGUUUGCUAAUAGUUGCAUG [Fam3.1 aminoacylation ribozyme variant],0.96,1.14,1.14,0.934,0.831,0.685
GUGCUUCAAACAAUCGGUCUG [Fam1A.1 aminoacylation ribozyme variant],2.57,195,4.85,2.39,2.69,79.6
AAGUUUGCUAAUCGUCGCAUG [Fam3.1 aminoacylation ribozyme variant],1.03,0.667,0.957,0.923,0.922,0.804
AAUUCUGCUAAUAGUCGCAAG [Fam3.1 aminoacylation ribozyme variant],1.88,12.7,1.61,1.56,1.81,4.46
GUUACCCUGGUCAUCAAGUGA [Fam2.1 aminoacylation ribozyme variant],2.37,11,3.12,2.08,3.81,4.39

# — the supplement of paper PMC9233669
